In paper PMC4530019:

Target: cardiac ryanodine receptor (RyR2) (rat (endogenous in ventricular myocytes)) (UniProt B0LPN4)
Chain of UniProt B0LPN4 (B0LPN4 whole entry): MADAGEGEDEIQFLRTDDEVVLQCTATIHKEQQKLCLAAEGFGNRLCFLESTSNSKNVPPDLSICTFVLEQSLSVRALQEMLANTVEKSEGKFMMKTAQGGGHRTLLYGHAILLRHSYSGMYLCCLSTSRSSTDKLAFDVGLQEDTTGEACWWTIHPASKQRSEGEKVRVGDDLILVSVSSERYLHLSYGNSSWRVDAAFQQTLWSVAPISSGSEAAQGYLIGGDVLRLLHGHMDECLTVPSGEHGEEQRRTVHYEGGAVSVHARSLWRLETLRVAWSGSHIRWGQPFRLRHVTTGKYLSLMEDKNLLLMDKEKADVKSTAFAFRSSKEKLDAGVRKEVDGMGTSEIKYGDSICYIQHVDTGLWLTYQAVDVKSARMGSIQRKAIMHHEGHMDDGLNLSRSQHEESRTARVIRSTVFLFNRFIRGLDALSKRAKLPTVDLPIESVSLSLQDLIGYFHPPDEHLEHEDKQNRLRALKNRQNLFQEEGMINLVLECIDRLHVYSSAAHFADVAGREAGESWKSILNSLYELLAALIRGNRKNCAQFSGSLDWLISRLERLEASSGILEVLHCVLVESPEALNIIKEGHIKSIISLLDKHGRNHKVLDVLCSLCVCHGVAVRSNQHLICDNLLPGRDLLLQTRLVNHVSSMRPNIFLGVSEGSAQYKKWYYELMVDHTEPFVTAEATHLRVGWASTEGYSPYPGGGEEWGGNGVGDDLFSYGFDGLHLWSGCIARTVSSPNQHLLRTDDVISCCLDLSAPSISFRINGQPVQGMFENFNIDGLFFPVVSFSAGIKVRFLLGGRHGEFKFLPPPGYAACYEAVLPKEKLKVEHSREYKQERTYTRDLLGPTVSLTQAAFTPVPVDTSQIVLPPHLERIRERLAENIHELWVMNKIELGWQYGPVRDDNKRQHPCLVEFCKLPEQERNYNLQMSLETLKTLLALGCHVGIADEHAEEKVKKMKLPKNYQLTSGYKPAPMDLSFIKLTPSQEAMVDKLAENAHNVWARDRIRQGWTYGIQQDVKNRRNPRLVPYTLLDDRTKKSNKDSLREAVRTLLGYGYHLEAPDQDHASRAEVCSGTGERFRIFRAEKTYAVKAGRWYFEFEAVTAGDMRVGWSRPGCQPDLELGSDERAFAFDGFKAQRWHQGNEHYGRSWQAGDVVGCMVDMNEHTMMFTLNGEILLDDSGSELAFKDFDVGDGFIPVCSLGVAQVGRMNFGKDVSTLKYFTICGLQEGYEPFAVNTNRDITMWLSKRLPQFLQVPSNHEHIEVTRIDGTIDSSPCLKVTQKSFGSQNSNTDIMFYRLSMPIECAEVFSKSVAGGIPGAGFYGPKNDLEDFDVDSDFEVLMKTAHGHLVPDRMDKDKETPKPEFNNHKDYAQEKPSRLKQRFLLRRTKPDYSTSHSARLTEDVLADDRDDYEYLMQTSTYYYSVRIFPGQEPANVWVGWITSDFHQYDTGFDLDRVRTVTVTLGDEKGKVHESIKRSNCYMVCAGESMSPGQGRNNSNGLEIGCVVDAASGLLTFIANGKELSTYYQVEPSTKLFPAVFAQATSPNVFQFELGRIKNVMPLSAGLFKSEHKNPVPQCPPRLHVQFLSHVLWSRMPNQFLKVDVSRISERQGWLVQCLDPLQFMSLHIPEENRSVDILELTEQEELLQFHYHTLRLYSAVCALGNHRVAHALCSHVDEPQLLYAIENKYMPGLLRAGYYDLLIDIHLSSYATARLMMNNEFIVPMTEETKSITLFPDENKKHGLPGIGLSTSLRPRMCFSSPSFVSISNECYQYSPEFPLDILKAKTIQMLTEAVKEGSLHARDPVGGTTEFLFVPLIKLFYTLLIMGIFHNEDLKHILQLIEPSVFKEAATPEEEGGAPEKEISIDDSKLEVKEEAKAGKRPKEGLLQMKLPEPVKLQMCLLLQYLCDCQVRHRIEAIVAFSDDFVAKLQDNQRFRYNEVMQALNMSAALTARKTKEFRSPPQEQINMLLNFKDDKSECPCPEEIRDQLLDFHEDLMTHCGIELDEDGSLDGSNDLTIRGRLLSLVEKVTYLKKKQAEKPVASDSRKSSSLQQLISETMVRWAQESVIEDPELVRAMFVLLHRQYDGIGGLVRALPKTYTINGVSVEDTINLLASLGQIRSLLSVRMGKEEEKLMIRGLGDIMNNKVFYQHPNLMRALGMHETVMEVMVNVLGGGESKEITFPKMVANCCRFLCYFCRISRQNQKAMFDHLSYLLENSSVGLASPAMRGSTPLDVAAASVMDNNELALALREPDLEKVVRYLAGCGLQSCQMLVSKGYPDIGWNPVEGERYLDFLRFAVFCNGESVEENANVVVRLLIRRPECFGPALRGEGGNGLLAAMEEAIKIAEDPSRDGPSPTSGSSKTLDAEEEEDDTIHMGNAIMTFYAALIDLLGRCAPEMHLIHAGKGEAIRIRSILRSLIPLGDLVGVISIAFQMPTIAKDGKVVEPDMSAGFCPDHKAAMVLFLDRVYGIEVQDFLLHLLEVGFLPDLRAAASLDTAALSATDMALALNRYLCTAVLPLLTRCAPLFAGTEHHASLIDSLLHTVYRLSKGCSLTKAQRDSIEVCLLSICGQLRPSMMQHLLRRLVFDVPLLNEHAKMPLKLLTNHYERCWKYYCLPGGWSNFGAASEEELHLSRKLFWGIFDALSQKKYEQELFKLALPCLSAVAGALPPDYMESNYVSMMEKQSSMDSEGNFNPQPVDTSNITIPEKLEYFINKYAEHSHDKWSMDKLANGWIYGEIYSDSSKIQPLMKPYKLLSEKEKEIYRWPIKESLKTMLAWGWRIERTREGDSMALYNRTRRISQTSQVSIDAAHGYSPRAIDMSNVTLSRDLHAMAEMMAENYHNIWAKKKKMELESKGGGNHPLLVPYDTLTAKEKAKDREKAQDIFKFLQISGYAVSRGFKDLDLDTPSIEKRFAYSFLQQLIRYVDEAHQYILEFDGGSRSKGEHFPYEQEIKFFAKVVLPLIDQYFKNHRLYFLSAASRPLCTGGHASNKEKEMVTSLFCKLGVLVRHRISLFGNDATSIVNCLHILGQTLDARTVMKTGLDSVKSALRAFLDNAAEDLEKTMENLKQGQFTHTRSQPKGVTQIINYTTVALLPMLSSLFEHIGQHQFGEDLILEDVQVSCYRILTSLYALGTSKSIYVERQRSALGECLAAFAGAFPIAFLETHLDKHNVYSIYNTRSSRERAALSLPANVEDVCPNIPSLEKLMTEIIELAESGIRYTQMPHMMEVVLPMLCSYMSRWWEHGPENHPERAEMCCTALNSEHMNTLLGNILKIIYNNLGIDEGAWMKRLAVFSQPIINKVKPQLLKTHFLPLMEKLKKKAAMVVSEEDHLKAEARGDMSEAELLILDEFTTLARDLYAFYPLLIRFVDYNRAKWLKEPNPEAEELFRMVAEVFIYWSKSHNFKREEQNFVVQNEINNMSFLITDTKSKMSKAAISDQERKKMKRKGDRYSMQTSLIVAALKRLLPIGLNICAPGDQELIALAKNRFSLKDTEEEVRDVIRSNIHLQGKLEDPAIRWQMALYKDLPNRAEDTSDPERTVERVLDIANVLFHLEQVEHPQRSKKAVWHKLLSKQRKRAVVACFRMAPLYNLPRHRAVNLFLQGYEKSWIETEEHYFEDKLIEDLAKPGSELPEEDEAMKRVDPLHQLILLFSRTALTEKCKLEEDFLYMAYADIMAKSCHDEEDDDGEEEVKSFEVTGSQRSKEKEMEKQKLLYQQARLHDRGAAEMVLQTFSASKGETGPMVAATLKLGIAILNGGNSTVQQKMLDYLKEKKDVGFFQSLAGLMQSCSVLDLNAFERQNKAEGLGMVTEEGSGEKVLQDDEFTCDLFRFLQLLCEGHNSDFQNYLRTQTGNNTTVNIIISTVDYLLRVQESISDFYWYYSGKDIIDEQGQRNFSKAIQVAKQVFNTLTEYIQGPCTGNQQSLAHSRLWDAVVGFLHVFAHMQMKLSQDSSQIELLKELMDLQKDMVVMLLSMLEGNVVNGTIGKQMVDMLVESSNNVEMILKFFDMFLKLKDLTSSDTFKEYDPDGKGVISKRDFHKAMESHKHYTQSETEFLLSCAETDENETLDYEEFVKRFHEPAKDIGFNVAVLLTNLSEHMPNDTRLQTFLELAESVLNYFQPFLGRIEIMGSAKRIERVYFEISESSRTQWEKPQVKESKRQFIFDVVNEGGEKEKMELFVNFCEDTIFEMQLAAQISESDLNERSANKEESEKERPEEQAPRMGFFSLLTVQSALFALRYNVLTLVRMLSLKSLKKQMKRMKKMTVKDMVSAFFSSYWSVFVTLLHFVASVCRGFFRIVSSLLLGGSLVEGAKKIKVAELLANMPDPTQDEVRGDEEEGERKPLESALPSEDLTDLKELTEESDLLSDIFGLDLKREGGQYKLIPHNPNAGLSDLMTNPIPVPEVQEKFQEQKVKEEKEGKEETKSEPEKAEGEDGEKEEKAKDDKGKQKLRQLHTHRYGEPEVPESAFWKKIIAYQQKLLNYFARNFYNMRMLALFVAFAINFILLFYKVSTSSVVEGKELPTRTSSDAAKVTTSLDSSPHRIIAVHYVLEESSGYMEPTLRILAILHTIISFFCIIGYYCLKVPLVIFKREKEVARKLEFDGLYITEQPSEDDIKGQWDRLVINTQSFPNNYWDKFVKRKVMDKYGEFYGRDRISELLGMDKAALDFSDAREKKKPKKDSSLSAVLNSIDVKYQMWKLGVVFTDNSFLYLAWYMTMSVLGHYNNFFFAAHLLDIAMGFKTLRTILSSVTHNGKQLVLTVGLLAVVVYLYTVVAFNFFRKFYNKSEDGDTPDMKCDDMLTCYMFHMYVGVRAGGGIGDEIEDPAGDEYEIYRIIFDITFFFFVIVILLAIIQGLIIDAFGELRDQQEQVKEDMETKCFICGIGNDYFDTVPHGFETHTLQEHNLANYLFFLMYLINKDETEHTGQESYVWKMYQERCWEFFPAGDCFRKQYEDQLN

- percent reduction of specific Z-line binding against F-CaM that was not oxidized: 20%
Substance: F-CaM pre-incubated in H2O2 (F-CaM^Ox) (from UniProt P0DP23 1-149) (natural protein)
